Data from the Human Domainome abundance scans (Beltran et al. 2025).
± gives the uncertainty stated by the source.

B1: POU domain, class 4, transcription factor 2, residues 256 to 327; numbered along this chain, Q12837 (parent)
chain: RDLEAFAERFKQRRIKLGVTQADVGSALANLKIPGVGSLSQSTICRFESLTLSHNNMIALKPILQAWLEEAE

Variants of: B1
Test: abundance fitness (aPCA) (normalised: wild type 0, dead -1); higher = more abundant; growth selection in yeast, the domain comes from the species named
Details: Homo sapiens

Abundance fitness of substitutions, site by site:
R14: Q -0.819 ± 0.18 | L -0.847 ± 0.095 | T -0.698 ± 0.1 | P -0.985 ± 0.078 | Y -0.594 ± 0.32 | G -1.07 ± 0.21 | C -0.854 ± 0.21 | I -0.601 ± 0.31 | S -0.904 ± 0.1 | M -0.725 ± 0.14 | H -0.859 ± 0.21 | V -0.998 ± 0.27 | A -0.906 ± 0.42 | K -0.632 ± 0.42
K11: H -0.901 ± 0.25 | A -0.337 ± 0.064 | Y -0.781 ± 0.32 | Q -0.34 ± 0.13 | T -0.194 ± 0.1 | S -0.443 ± 0.08 | F -0.761 ± 0.19 | M -0.706 ± 0.13 | W -0.701 ± 0.2 | P -0.994 ± 0.12 | G -0.678 ± 0.093 | L -0.661 ± 0.094 | E -0.914 ± 0.34 | R -0.106 ± 0.056
L3: D -0.658 ± 0.29 | N -0.382 ± 0.19 | P -0.558 ± 0.076 | H -0.368 ± 0.11 | E -0.573 ± 0.091 | W -0.283 ± 0.081 | R -0.74 ± 0.1 | M 0.064 ± 0.089 | Y -0.213 ± 0.11 | I 0.072 ± 0.1 | Q -0.437 ± 0.078 | G -0.947 ± 0.14 | T -0.327 ± 0.096 | V -0.153 ± 0.061
T20: W -0.731 ± 0.17 | G -0.419 ± 0.071 | D -0.254 ± 0.11 | R -0.464 ± 0.054 | A -0.195 ± 0.053 | V -0.964 ± 0.22 | Y -1.05 ± 0.25 | N -0.559 ± 0.4 | S -0.067 ± 0.045 | P -0.473 ± 0.074 | C -0.338 ± 0.1 | L -0.607 ± 0.083 | M -0.344 ± 0.14 | I -0.916 ± 0.34 | H -0.736 ± 0.17 | E -0.325 ± 0.12 | Q -0.555 ± 0.13 | K -0.159 ± 0.083
D23: W -0.495 ± 0.085 | E -0.057 ± 0.16 | C -0.678 ± 0.16 | Q 0.047 ± 0.074 | H -0.127 ± 0.1 | L -0.252 ± 0.062 | N -0.119 ± 0.19 | R -0.243 ± 0.045 | Y -0.299 ± 0.38 | S -0.068 ± 0.054 | M -0.189 ± 0.17 | K 0.09 ± 0.11 | A -0.172 ± 0.069 | P -0.755 ± 0.067 | V -0.403 ± 0.087
L17: Y -0.778 ± 0.32 | P -0.974 ± 0.17 | R -0.733 ± 0.074 | G -0.884 ± 0.15 | H -1.06 ± 0.4 | K -0.286 ± 0.24 | W -0.589 ± 0.095 | D -0.681 ± 0.35 | V -0.592 ± 0.11 | N -0.458 ± 0.27 | S -0.565 ± 0.074 | C -0.704 ± 0.12 | Q -0.513 ± 0.1 | A -0.394 ± 0.12 | T -0.272 ± 0.11
K16: C -0.137 ± 0.1 | F -0.066 ± 0.11 | Q 0.004 ± 0.076 | G -0.026 ± 0.086 | H 0.028 ± 0.11 | S -0.018 ± 0.052 | P -1.1 ± 0.28 | M 0.11 ± 0.12 | D -0.392 ± 0.16 | E 0.036 ± 0.12 | T -0.015 ± 0.072 | I -0.016 ± 0.1 | N -0.55 ± 0.49 | Y -0.073 ± 0.23 | V -0.146 ± 0.082 | W -0.403 ± 0.14 | A 0.001 ± 0.055
R9: M 0.095 ± 0.13 | G -0.061 ± 0.046 | N -0.005 ± 0.19 | I -0.347 ± 0.22 | C 0.014 ± 0.15 | T 0.033 ± 0.073 | F -0.335 ± 0.19 | Y -0.055 ± 0.15 | Q 0.195 ± 0.088 | H 0.15 ± 0.077 | E 0.263 ± 0.1 | W -0.136 ± 0.074 | S 0.018 ± 0.047 | A -0.07 ± 0.062 | K 0.007 ± 0.17 | L 0.1 ± 0.052 | P -0.782 ± 0.086 | D 0.307 ± 0.12
R13: H -0.115 ± 0.082 | W -0.338 ± 0.099 | L -0.223 ± 0.057 | S -0.014 ± 0.054 | C -0.476 ± 0.18 | F -0.375 ± 0.13 | Y -0.761 ± 0.31 | E -0.03 ± 0.09 | Q -0.113 ± 0.087 | P -1.02 ± 0.14 | T -0.165 ± 0.086 | G -0.067 ± 0.069 | D -0.462 ± 0.34 | V 0.067 ± 0.057 | A 0.066 ± 0.05 | N -0.401 ± 0.14
D2: W -0.185 ± 0.32 | N 0.077 ± 0.14 | Y -0.171 ± 0.37 | S -0.124 ± 0.053 | M -0.318 ± 0.2 | H -0.497 ± 0.33 | P -0.266 ± 0.069 | L -0.568 ± 0.084 | R -0.379 ± 0.06
V19: D -0.614 ± 0.12 | P -0.987 ± 0.14 | T -0.307 ± 0.067 | H -0.12 ± 0.13 | Q -0.027 ± 0.1 | G -0.927 ± 0.18 | K 0.258 ± 0.32 | N -0.093 ± 0.2 | L 0.004 ± 0.049 | S -0.092 ± 0.052 | I -0.189 ± 0.11 | R 0.03 ± 0.042 | M 0.055 ± 0.081 | A 0.018 ± 0.063 | F -0.103 ± 0.13
A22: F -0.031 ± 0.17 | K -0.078 ± 0.12 | G -0.038 ± 0.046 | V -0.339 ± 0.08 | T -0.347 ± 0.096 | L -0.222 ± 0.054 | Q -0.052 ± 0.08 | R -0.138 ± 0.049 | D -0.262 ± 0.15 | E -0.066 ± 0.1 | N -0.219 ± 0.11 | I -0.393 ± 0.17 | S -0.082 ± 0.051 | P -0.463 ± 0.078 | H -0.03 ± 0.15 | W -0.302 ± 0.077
E4: K -0.137 ± 0.089 | D -0.282 ± 0.11 | F -0.251 ± 0.18 | A -0.048 ± 0.057 | R -0.137 ± 0.054 | S -0.141 ± 0.061 | L -0.165 ± 0.062 | I -0.002 ± 0.1 | C -0.273 ± 0.12 | M -0.004 ± 0.047 | V -0.085 ± 0.058 | Q -0.134 ± 0.069 | P -0.335 ± 0.057 | Y 0.13 ± 0.12 | G -0.368 ± 0.063 | T -0.002 ± 0.074 | W -0.234 ± 0.075 | H -0.119 ± 0.12
F10: P -0.994 ± 0.12 | D -0.823 ± 0.21 | I -0.632 ± 0.3 | C -0.817 ± 0.33 | R -0.814 ± 0.099 | T -0.707 ± 0.12 | V -0.59 ± 0.16 | S -1 ± 0.16 | Q -0.825 ± 0.23 | E -0.755 ± 0.26 | L -0.921 ± 0.14 | G -0.955 ± 0.17 | M -0.694 ± 0.34
A7: D -0.769 ± 0.35 | P -0.768 ± 0.063 | N -0.907 ± 0.41 | G -0.639 ± 0.065 | S -0.455 ± 0.066 | E -0.443 ± 0.23 | V 0.08 ± 0.063 | M -0.774 ± 0.3 | H -0.772 ± 0.23 | Y -0.537 ± 0.13 | Q -1.01 ± 0.28 | L -0.936 ± 0.19 | C -0.358 ± 0.13 | W -0.709 ± 0.28
Q12: F -0.298 ± 0.21 | W -0.269 ± 0.094 | E -0.016 ± 0.1 | Y -0.463 ± 0.23 | C -0.865 ± 0.43 | S -0.186 ± 0.065 | D -0.148 ± 0.16 | I -0.063 ± 0.13 | M -0.194 ± 0.1 | A 0.045 ± 0.056 | H 0.011 ± 0.16 | P -1.22 ± 0.32 | V -0.232 ± 0.091
E8: Q -0.091 ± 0.079 | L -0.072 ± 0.064 | Y 0.036 ± 0.073 | T -0.222 ± 0.079 | K 0.007 ± 0.11 | C -0.313 ± 0.076 | H -0.016 ± 0.085 | R 0.031 ± 0.041 | F -0.306 ± 0.16 | A -0.232 ± 0.071 | I 0 ± 0.1 | W -0.208 ± 0.074 | D -0.172 ± 0.079 | V -0.121 ± 0.087 | P -0.862 ± 0.097 | M -0.137 ± 0.1 | N 0.049 ± 0.096 | G -0.119 ± 0.056
G18: W -0.778 ± 0.14 | H -0.292 ± 0.088 | L -0.598 ± 0.083 | P -1.14 ± 0.19 | K -0.47 ± 0.14 | S -0.652 ± 0.078 | A -0.593 ± 0.2 | R -0.372 ± 0.042 | I -0.883 ± 0.13 | N -0.82 ± 0.26 | M -0.76 ± 0.21 | E -0.322 ± 0.13 | F -0.892 ± 0.41 | Q -0.446 ± 0.088
Q21: A -0.028 ± 0.091 | Y -0.194 ± 0.1 | V 0.002 ± 0.07 | E -0.258 ± 0.1 | T 0.011 ± 0.066 | M -0.39 ± 0.097 | I 0.151 ± 0.3 | G -0.241 ± 0.057 | H 0.184 ± 0.27 | K -0.361 ± 0.19 | R -0.111 ± 0.043 | N -0.346 ± 0.39 | F -0.426 ± 0.2 | C -0.024 ± 0.097 | P -0.175 ± 0.082 | L 0.002 ± 0.055 | W -0.238 ± 0.059
V24: C -0.1 ± 0.11 | W -0.781 ± 0.11 | F -0.642 ± 0.18 | S -0.8 ± 0.12 | R -0.76 ± 0.09 | Y -0.975 ± 0.4 | M -0.191 ± 0.098 | E -0.88 ± 0.39 | T -0.948 ± 0.17 | I -0.145 ± 0.15 | P -0.928 ± 0.24 | K -0.844 ± 0.21 | Q -1.02 ± 0.28 | N -0.821 ± 0.25 | A -0.067 ± 0.13 | G -1.03 ± 0.19
A5: V 0.004 ± 0.11 | S -0.167 ± 0.097 | P -0.277 ± 0.14 | E -0.329 ± 0.35 | I -0.008 ± 0.35 | F 0.033 ± 0.1 | N 0.093 ± 0.18 | Q -0.055 ± 0.12 | W -0.491 ± 0.27 | R -0.001 ± 0.068 | T -0.201 ± 0.2 | C -0.311 ± 0.24 | L 0.017 ± 0.12
I15: S -0.262 ± 0.056 | L -0.101 ± 0.064 | H -0.451 ± 0.13 | W -0.461 ± 0.094 | K 0.015 ± 0.086 | M 0.113 ± 0.14 | Q -0.066 ± 0.034 | F -0.36 ± 0.11 | T 0.026 ± 0.083 | A -0.237 ± 0.082 | Y -0.444 ± 0.15 | N -0.521 ± 0.14 | P -0.569 ± 0.087 | G -0.515 ± 0.085 | E -0.226 ± 0.11 | C -0.405 ± 0.12 | R -0.298 ± 0.055
